# Data from PMC9672406 (The Journal of Biological Chemistry, 2022).
# B1: MqnA from Streptomyces coelicolor (chorismate dehydratase), wild type (enzyme)
# chain: DNSRTRPRVGHIQFLNCLPLYWGLARTGTLLDFELTKDTPEKLSEQLVRGDLDIGPVTLVEFLKNADDLVAFPDIAVGCDGPVMSCVIVSQVPLDRLDGARVALGSTSRTSVRLAQLLLSERFGVQPDYYTCPPDLSLMMQEADAAVLIGDAALRANMIDGPRYGLDVHDLGALWKEWTGLPFVFAVWAARRDYAEREPVITRKVHEAFLASRNLSLEEVEKVAEQAARWEAFDEDTLAKYFTTLDFRFGAPQLEAVTEFARRVGPTTGFPADVKVELLKP
# Target: the molecule itself
# Test: AUC
protein,measurement,value
B1,stoichiometry N,2
